This is an account of results in US20220057403A1.

The assay addresses HA-tagged re-expressed version of the Qa-1b molecule (mouse). The assay is described as follows: immunoprecipitation of Qa-1b from tumor cells, mass spectrometry of the associated peptides.

Sequence of HA-tagged re-expressed version of the Qa-1b molecule (mouse) (P06339 21-357, chain 1 of 2): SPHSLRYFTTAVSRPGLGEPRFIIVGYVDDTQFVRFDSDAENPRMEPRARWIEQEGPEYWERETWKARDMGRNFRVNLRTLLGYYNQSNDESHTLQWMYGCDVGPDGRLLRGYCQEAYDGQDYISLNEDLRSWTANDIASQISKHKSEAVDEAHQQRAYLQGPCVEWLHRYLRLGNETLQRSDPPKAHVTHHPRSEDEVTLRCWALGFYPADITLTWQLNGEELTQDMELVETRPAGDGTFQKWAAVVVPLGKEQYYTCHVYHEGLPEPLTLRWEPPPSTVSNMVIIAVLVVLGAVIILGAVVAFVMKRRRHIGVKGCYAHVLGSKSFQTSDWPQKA
Sequence of HA-tagged re-expressed version of the Qa-1b molecule (mouse) (P01887 21-119, chain 2 of 2, further chain): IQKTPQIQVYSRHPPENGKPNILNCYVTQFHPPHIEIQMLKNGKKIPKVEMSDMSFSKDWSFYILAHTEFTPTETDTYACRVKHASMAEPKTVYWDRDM

B1: Mouse Qdm Peptide (peptide)
peptide: AMAPRTLLL
Take B1: the percent of Qa-1b associated with the peptide (control sample) is over 99%.
